Measurements from the domain aggregation screens of Martell et al. (2025).

Assay: soluble fraction after stress (log2 fold change); higher = more stays soluble; pooled small domains, quantitative proteomics
Conditions: stress: 50 degC
Summary of the method: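 Pooled custom libraries of small protein domains were measured in a high-throughput format, with quantitative proteomics as the read-out. Each library was stressed at 50°C. Aggregation propensity is given as the base-two logarithm of the fold change in how much of each protein stays soluble after the stress. Higher values mean a larger share of the protein remains in solution.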

Row | Sequence | soluble fraction (log2)
1 | HMGQPAVSSRDVAEQFGKEHRNVIQSIKNLIAENSALTFMFIEDTYTAGTGKKYPMYYMNRDGFTLLA | 0.224
2 | HMYFNTADLKADSIHYGSTEQSVIKILGEPEYRETFVDNNVSYELFSYKGNLLLSFVENSLVSL | 0.0896
3 | HMNKEDIASNEKLLGLLNHMSKVLKDIDFIKDDRPMIVRKINHIFKKATLSEEEINILRGVLSAIENHS | -0.479
4 | HMQVTEVDYGTFMKMVEEKNVGEVEVGNSMIVFTDKDGKAIYKTGAMNDPNLTERLYNAGASFTKE | 0.0396
5 | HMKGTLPEMITSREEVVLKFMVNGWDAKRIASELDISVLTVRKHIANIYEKLHVQSKAEIISMAHQQKWFN | -1.52
6 | HMYPTPAAANRHFLDKWGHQEAYLGKVLNSRSRASEILNGKRPLSLSDLRTLRDNLGIPVDLLL | -0.489
7 | HMVDITPDLIRTLLERFGEYGVTKEHIEARIQRHIESILPAQVVQLRKTYNSLKDGMSQPSDWFDI | -1.26
8 | HMNLGNLAYESKVTKQVLNMIRPLHPEYSSDDITRAVKEILSEEGSRQRRVDEIARGALDVLMGNPR | 0.216
9 | HMNSNSLSFSKFMQEVEAGRVIEVQIKGNDIQGELSDGSKFKTYSPNYPNLVDKLSENKVSIVATPL | 0.038
10 | HMKHRTQMDIQQLPAIEGKGGFEYKISIIHLSTRIKYSEIHDNYNTTTIAKVYENAIERLPPF | -2.24
11 | HMNSEAVQNVIDKISALPDDITAKAKSQIEEARAAYEALSDSEKARVTNYSTLVAAEKKLASVVKD | 0.325
12 | HMPRTEILMVDEEMEGERLDAFVAEQLDELSRSLVKTLIENGEIRVDGKQQKPSYRLKAGEEIIVEIPA | 0.208
13 | HMRSFGTVAQARGRWKAFYVGPDKRRHTPGVTFSNPIRAQGWLAQELTLIELGQWTPPAQRREKAEVAS | -2.4
14 | HMSDQIQQIAERIAGLRDIAGYSVEELARELGISAEEYKRYESGEVDIPIGFLYKLANKYNVELTAILT | -0.0876
15 | HMSTGYEMVREVANQGSFSKAANSLGVSGPAVSKQVKSLEERLGLVLFHRTTRAVSLTQAGRQLVDVLN | 0.0396
16 | HMDDISLEEIKYISSKLETKVNEIEELLVRYYDGETNEAEEKELKEFFAQADVPAHLLAEKRLFMQLASQ | -0.0772
17 | HMQISDTTELSTLITKVLSEQSDALVDFKNPKKQKQVIGYLTGQVLRASQGKANPGLVRSLLEEQLSALDS | 0.124
18 | HMVAMYLRVGISNGRRYLSIVQGYRDQVTKKVRHNTVKSLGYLDDLEKHYPDPIAHFKAVVEEMNKKQALE | -0.847
19 | HMNLDELGNRIREQRIKQRLKQQDIANALMLSAQAVSKWERGENAPDISVLPDLVKILGVSVDWLLTGP | -0.734
20 | HMSTANIVVPDVKGKTFEEAKKAIEAEGLTAKAEGDESGVVQKTSPSYGVSVESGSEVTLTLVKSDD | -0.0409
21 | HMDRQIQITVAENEAGQRLDAFLAAKIPDMSRSYIQKLIEDGLILVNGQSTKGKVKTYSGMNIEVYMPE | 0.166
22 | HMLMKILTDALEKMSPEELKELAEATGVKNTSSITPETMVGVFQAVFRVGGFKSYQLTLIIVNAVLKA | -0.126
23 | HMTKGVKVEIGTEEASVDLYVVMEYGTPIQKAAYDAQESVRKAIETMTNLHVVRVDVHVQGVSF | -0.134
24 | HMSGPMVPNVVGLSEEMARALLSDYSITIKHAHDGVIPKDRVASQLPLATTHAKVGSSVVLTIS | -0.354
25 | HMEHVVFEVTESGELENNTAVKHVLNSFNNKSLNLAIDDFGTGYSNLRYIRDMMFGIIKIDRLFIKDINES | -0.018
26 | HMEKFTGELSQEEKNVLDALSHEEMHVDIIIKLTKLETSAVSSTLSLLEIKGLIKNIGGQNYIK | 0.486

Row | Sequence | soluble fraction (log2)
27 | HMNFSRQREIIYEQVRNFPVHPTAEEVYRALKNDNPNLSLGTVYRNLNQLSEAGMLLKIPIADGSDRFDGR | -0.492
28 | HMGGPAGPDFTYTGDDLTRIDYDDGSYKVFTYDAGKLSQIDFTSGGTTTRKTFVYSGDTLIRVDQTI | -0.44
29 | HMTDVRFISIPIQKEHPWNRKLVSELNLPPGTLLVFLRRTGENIVPNGKTMIQEGDVLVLGASAYR | -0.295
30 | HMSVTVPDVKRMQAEDAKALLSRYRLRSEVIDSVYVDNIPRGAVVEQIPRENSSVKENRIVFLTINSN | -0.363
31 | HMENKIIKNAAHATLKVKKDAGIEITTELIREAVILFHRIYSPNDNPNINWERIINELESHYT | -2.77
32 | HMKHSLNHLGLWLLPELSRRDIQLREFAHLLGTTSQGLSDLLRGQRFSSHTLAQWQLRFQEKLDEIDQAS | -1.11
33 | HMETVMYLRQIKRPQGIYLAIQESYYDSSKKQSRTRTIESIGYLDNLRKEYEDPIAFFSQKAAAMTSEKKK | -1.51
34 | HMNSNTIIINDIMTKIGKEVKNFTEIYSIILKALAEHGEEYVRTNTEYALKNFTGNFDIFLEQLLLK | -0.201
35 | HMRVPTVIGMDEGTAKATLANASLKSNIVYESDETKENGKVLSQGIEQNKEVKAGTTVEIKVNKIE | -0.0202
36 | HMGKINEIVANNIAILRKKNRLSLEELGKLSGVSKSMLALIEKGDGNPTLGILWKIANGLGVPFDELTRRP | -0.0928
37 | HMSVGDLPPEAREIWKLLDGRELSLDLLAEETGRETGALLSTLMMLEMKLLVEHGSDMVYRRIPRR | -1.78
38 | HMEKAISSLTLEEAKKRLEMVRSEKDASLQIYKETGSETARVTAENYGKEENSLLLHISEMSNIV | -0.469
39 | HMPTGRVVIPLNRLTASDVARILDEAYGRDHNFEVVKPSRLAKGIIVIGPKSEIDGIKELLAH | -0.535
40 | HMISQLRGKVLGTDRDALVIDVGGVGFRVSATAGARALAGQSGNEARLFTEMVVREDSIDLFGF | 0.217
41 | HMVEIPEFKITTFVNTDNEQIAEFENGFTDKKAEITFNNTKYVFKEKLPDQDGIRTYVYEELHE | 0.117
42 | HMGGPEPIPAQIREGDTVYVTKFKQLGLVLKISEDTAEVQIGPLRATVAKTELSKVDATATEHR | 0.158
43 | HMGDIMLLFKENGKVYFLVGNQYTYVKNPTELSAIKTMMKQAGYDTHEHTNTTQVAYIKRLATE | -2.11
44 | HMSREQARRFYFDTWAKHRASQPLTDLEKIALTVMLLHPEYHSLLDKPDHYVDKDYSPEAGQTNPFLHM | -1.2
45 | HMTDSDTQDIDVGELRVGHFVFLDLSWIRHPFPLSSFKIQSAEQIKTIRSLGLRRIRYSPGRSGP | -1.18
46 | HMSPTDKATVNVYALNVRTGPGTNYKVLGSVIKGTELQVLGSSGKWLKVKYGNREAYVAGWLVK | -1.62
47 | HMDYQYILVDVKDRIATVTINRPEYSNAFARESYYEIADAMNTLGARDDVGVIVITGAGKHFSAGGDIKRF | -0.534
48 | HMVDLEINGRQTLQFVANKYGIPVEKLATDLNIPSDRFGEKLGRLRRQYAFTMNDVRKSILKNK | 0.00739
49 | HMKMLPAEVLTHPAVVALIERGAPTGSITPEEVRQASEDAAVEPRHLKALLAHLSALGISVQIP | -0.217
50 | HMYMKGKVKWFDSKKGYGFITSENGKEIFVHFSGIAAKGFKSLNEGQTVEFEVANGAKGEQAVNVTV | -0.804
51 | HMSFNSQENKSVLWQFLLENNFFIGLSDKKFNKVKDIFEKNIQSISIVNDSISNKNKILIQKMMEELELL | -1.88
52 | HMETKPTELMLDVHKLRIGMFVYLDLGWMDHPFPLNRFKISTNAQIEQIKGLRLKQVKVMTALSDPASLL | -3.19

Row | Sequence | soluble fraction (log2)
53 | HMVGEPEPIRYSRFLDEMKSGKLDSVVIQGDTILGVRKDKSQFKTVNPETDYSALIGALDKAGVGIEGRA | 0.146
54 | HMKETLSINSTDFEVRRSSRRKRISVGFDTGTETFFIAAPTKLAGTDILRILGPQISRLMDRLT | -1.95
55 | HMKTPRKVFTVLIRNTEYDVYDIDGKEHQGYNDTPKTWWLYHSERLPEGMIPPIDSDSWKPYSVGT | -0.831
56 | HMRPEARAASLSDEERKIFDYLAANGEKTIDNISVAVKMSAADILKNITLMSAKGLVYMPSAGRYGVKGN | -0.00201
57 | HMYEVVPNMRGLTYNQATAALAAAGLKVELSDSIYDEHTQPGTVLDQSPRPNTKVKPNRVVYLTVNAF | -0.739
58 | HMKHFTYEEMELMSIYDPGTREGLIANLEEMRGYLEPDETELRELTDSALEKLRELSDADYEQLELI | -0.476
59 | HMMVIMRANATEPQIANVVAYVEKNGLNAHLSRGAERTVIGVVGDIRRVSKETFELMDGVDSVMRIS | -0.356
60 | HMLPKLAEEYAIMEIRGKGENLTAKLINKGGDSFMVRNGTVLQTGHRIDEITQTYVRAEINGMKDYLYFA | 0.417
61 | HMQTMTDDQVMQYVISQQEKGATQQDIVSKLLQKGVTVDQMRRIRKKYEAQQSQPGALDLTGSS | 0.209
62 | HMQTPVTVGDTMPNLIGTPKRLLLELLNRTDITVKLTGDGYVTAQSPAAGTPIAKGMIIELSL | -0.296
63 | HMDEWKRKELWDAIARLPKIQRMVVTMRTTENLPYKEIAKIMNISENSAKVNYHHAVEALKIFF | -2.66
64 | HMSVLEHVSGNVRRLRLQAGLSQEALARAASVSRRMLVGIESGDVNVSLSTLDRIAAALGVLFPDLVQAP | -1.52
65 | HMQLDDDQKEELILKLIDSLDTTKKGAPLTELAREAAKSNIGESELEEITTSLLDKGLVYEPTIGKMKR | 0.216
66 | HMVKEVKVPDVEGLTTEEAIKELKKYGLAYTTKSEENTDIEEGKVIRTEPKKGSTKVKGSTVTIIESSG | -0.169
67 | HMYFDDEELDTYKGRASNAYSPDETAQFEEVMTTMRPDEVAAWLRSLQLRGINLPDELKDEAIMLVE | -0.0866
68 | HMNFDVETGLPLDSRLVVSGLIQRDGINSLKRYEGMIVYVESEAKNYQLVGGISNTDWAELS | -0.916
69 | HMSGAQIQQLLESRAPQPGMNPDMIVRRKTYMNNVFNALKGALLRVANGSSPEEVKTEVDAAIQVDPDKL | 0.0889
70 | HMSEYIFGKNVVKEAFNNPSRIEEIYVLDKNMEFVSLAKKYHIKYTVITSSEMNKMVSGNHQGVVALVK | -0.277
71 | HMTDPVLYEERDDIAIITINRPEKKNTLTDAVIQGIADGIDAATKSADVVAVVLRGAGDTLTAGYDLTA | -0.132
72 | HMADEEEIMVPQVVGKTYDEAKSELENAGFKVEKNEKTSDKASGTVISQSINGGAKKGTSVTLTVSKGN | 0.149
73 | HMAVTFPYTAYATDAVRLRERPSSSADVLAVIRKGDAVLVTGTDGNYAIVDYEGKRGYVVSSFIAT | -0.317
74 | HMVWINIRDLSDLFSKSGKSENSKNILDLQTLKIEKLLGGGQINTPYTIKVKQATPSAIEKVKQAGGEVIL | -0.0218
75 | HMEELIIQEELANKRLDIAISLLFPELTRAHAQKLIKEGSVLVDGKPRKASYPLTAGKRLSVTLPEPE | 0.05
76 | HMAQNILPGQKNAIKSLATSAGFSQQELDSYLSQNYGKTLNNLSQKEGASLISGLQDGSIKKP | 0.352
